The values below come from PMC7744274.

Several values for one entry are separate records, joined by “and”; a condition that tells them apart may be missing. Equal values may be shown once.

Broadly, the Kd is the free concentration of one partner at which half of the binding sites on the other are occupied at equilibrium, for simple one-to-one binding. Read a high Kd as weaker binding.

This experiment concerns the target SARS-CoV-2 S glycoprotein, prefusion S ectodomain (trimeric SARS-CoV-2 spike) (SARS-CoV-2 | bacteriophage T4) (UniProt P0DTC2). As to the kind of experiment: SPR; Biacore T200; SARS-CoV-2 S (50 ug/ml) captured on Ni2+-loaded NTA chip; ACE2 (His-Tag removed) as analyte, 200 nM to 3.125 nM in triplicate, 50 uL/min, HBS P+ buffer; association 300 s, dissociation 600 s; 1:1 binding model.

As for “WT soluble ACE2 treated with alpha2-3,6,8 sialidase (from UniProt Q9BYF1 18-626) (domain or fragment)”, the decrease of KD against WT ACE2 worked out at 30 % lower.

For the substance “soluble ACE2 expressed in the presence of 20 uM kifunensine (Kif ACE2) (from UniProt Q9BYF1 18-626) (domain or fragment)”, the increase of KD against WT ACE2 came out at 50%.

With “soluble recombinant ACE2 ectodomain, un-engineered (wild-type form, WT) (from UniProt Q9BYF1 18-626) (domain or fragment)”, the Kd was 50 to 100 nM and 76 nM.
